Measurements from patent publication US20150203556A1 (UAB RESEARCH FOUNDATION, published 2015).

T1: IL-19 (human, UniProt Q9UHD0 25-177)
T1 construct: also called Interleukin-19; IL-19a
T1 sequence: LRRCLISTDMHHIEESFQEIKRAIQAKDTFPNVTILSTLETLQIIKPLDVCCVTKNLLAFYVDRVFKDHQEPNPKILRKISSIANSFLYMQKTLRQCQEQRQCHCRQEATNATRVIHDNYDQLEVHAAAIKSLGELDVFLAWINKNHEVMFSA

T2: IL-22 (Homo sapiens (Human), UniProt Q9GZX6 35-179, limits assumed)
T2 construct: also called IL-22 wt
T2 sequence: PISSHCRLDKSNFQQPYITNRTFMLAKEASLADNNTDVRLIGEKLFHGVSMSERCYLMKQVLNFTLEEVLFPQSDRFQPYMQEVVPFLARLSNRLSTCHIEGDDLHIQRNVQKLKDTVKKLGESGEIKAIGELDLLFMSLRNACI

T3: IL-20R1 triple mutant M3 (UniProt Q9UHF4 29-245)
T3 construct: range 29-245; also called IL-20R1 site 3 mutant
T3 sequence (looked up): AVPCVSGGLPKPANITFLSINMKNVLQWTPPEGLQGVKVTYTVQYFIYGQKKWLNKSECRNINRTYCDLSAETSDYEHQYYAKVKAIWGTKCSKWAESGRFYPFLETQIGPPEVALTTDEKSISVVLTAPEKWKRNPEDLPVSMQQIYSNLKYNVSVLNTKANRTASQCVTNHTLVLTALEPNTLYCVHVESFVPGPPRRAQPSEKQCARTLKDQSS

B1: IL22R1ddq/IL20R2-FCkh (Fc fusion)
chain 1: AHAPEDPSDLLQHVKFQSSNFENILTWDSGPEGTPDTVYSIEYKTYGERDWVAKKGCQRITRKSCDLTVETGDLQELYYARVTAVSAGGRSATKMTDRFSSLQHTTLKPPDVTCISKVRSIQMIVHPTPTPIRAGDGHRLTLEDIFHDLFYHLELQVNRTYQMHLGGKQREYEFFGLTPDTEFLGTIMICVPTWAKESAPYMCRVKTLPDRTWTYSGSGGGGPSVFIFPPKIKDVLMISLSPIVTCVVVDVSEDDPDVQISWFVNNVEVHTAQTQTHREDYNSTLRVVSALPIQHQDWMSGKEFKCKVNNKDLPAPIERTISKPKGSVRAPQVYVLPPPCEEMTKKQVTLYCMVTDFMPEDIYVEWTNNGKTELNYKNTEPVLDSDGSYFMYSKLRVEKKNWVERNSYSCSVVHEGLHNHHTTKSFSRTPGKGLEASGGLNDIFEAQKIEWHEGTGHHHHHH
chain 2: DEVAILPAPQQLSVLSTNMKHLLMWSPVIAPGETVYYSVEYQGEYESLYTSHIWIPSSWCSLTEGPECDVTDDITATVPYNLRVRATLGSQTSAWSILKHPFNRQSTILTRPGMEITKDGFHLVIELEDLGPQFEFLVAYWRREPGAEEHVKMVRSGGIPVHLETMEPGAAYCVKAQTFVKAIGRYSAFSQTECVEVQGEAGSGGGGPSVFIFPPKIKDVLMISLSPIVTCVVVDVSEDDPDVQISWFVNNVEVHTAQTQTHREDYNSTLRVVSALPIQHQDWMSGKEFKCKVNNKDLPAPIERTISKPKGSVRAPQVYVLPPPEEEMTKKQVTLTCMVTDFMPEDIYVEWTNNGKTELNYKNTEPVLDSDGSYFMTSKLRVEKKNWVERNSYSCSVVHEGLHNHHTTKSFGGCGTPASGGLNDIFEAQKIEWHE
notes: also called IL-22R1/IL-20R2-FCkh; soluble IL-22R1/IL-20R2 receptor heterodimer
B2: IL-20 (ligand)
chain: MLKTLNLGSCVIATNLQEIRNGFSEIRGSVQAKDGNIDIRILRRTESLQDTKPANRCCLLRHLLRLYLDRVFKNYQTPDHYTLRKISSLANSFLTIKKDLRLCHAHMTCHCGEEAMKKYSQILSHFEKLEPQAAVVKALGELDILLQWMEETE
notes: The crystal model holds residues 24-176; also called Interleukin-20; IL-20b

Key:
IL-19 = target: T1, IL-19; assay: SPR, IL-19 as analyte over IL22R1ddq/IL20R2-FCkh as ligand
IL-22 = target: T2, IL-22; assay: SPR, IL-22 as analyte over IL22R1ddq/IL20R2-FCkh as ligand
IL-20 = target: B2; assay: SPR, IL-20 as analyte over IL22R1ddq/IL20R2-FCkh as ligand
IL-20R1 triple mutant M3 = target: T3, IL-20R1 triple mutant M3; assay: SPR, IL-20 + M3 co-injected over an IL-20R2 chip
Experimental: FIGS. 9A-9D show the IL-20 site 3 interface is essential and distinct from other complexes. FIG. 9A is a ribbon diagram showing the site 3 interface between IL-20R1 and IL-20R2. FIG. 9B is a graph showing the importance of the site 3 interface in ternary complex formation. SPR sensograms obtained by injecting cytokines (IL-19 or IL-20, at 250 nM) and/or receptors (IL-20R1 or M3, at 425 nM), as labeled on the figure, over an IL-20R2 coupled biacore chip. Injection of IL-20+IL-20R1 results in a large response consistent with ternary complex formation. However, injection of IL-20+M3, an IL-20R1 site 3 mutant with S190^IL-20R1, W194^IL-20R1, and W207^IL-20R1 mutated to alanine drastically reduces binding due to disruption of ternary complex formation. Similar results are observed for complex formation by IL-19. FIG. 9C is a ribbon diagram of the superposition of the D2 domains of GHR site 1, IL-6R, and IL-20R1. The positions of the D2 domains of GHR site2, GP130, and IL-20R2 are shown, along with a schematic of the differences in their orientations. FIG. 9D is a ribbon diagram showing the putative model of the IL-22/IL-22R1/IL-10R2 complex based on the IL-20 ternary complex structure. […]

IL22R1ddq/IL20R2-FCkh = target: B1; assay: SPR with the IL-22R1/IL-20R2-FCkh heterodimer

Kd (IL-19) [nM] | Kd (IL-22) [nM] | kon (IL-22) [M⁻¹ s⁻¹] | Kd (IL-20) [nM] | binding result (IL-20R1 triple mutant M3) | fold difference in binding affinity against IL-19 (IL22R1ddq/IL20R2-FCkh) [fold] | Binder
101 | 5.15 | ~957000 | 0.99 |  |  | B1
 |  |  |  | binds | 100 | B2
